Test [1] has as its target T1, recombinant Notch2 (EGF1-12) Fc fusion protein (human).
T1 construct: passively immobilised for phage selection and ELISA screen; also called Notch2 Fc fusion protein
Put plainly: phage selection and ELISA screen on passively immobilized Notch2 (EGF1-12) Fc fusion. On the procedure:
Briefly, 2×10¹³ Fab displaying phage particles were incubated with a passively immobilized, recombinant Notch2 Fc fusion protein (SEQ ID NO:21) comprising the extracellular ligand binding site of Notch2 and surrounding EGF repeats (EGF1-12) in round one. The non-specific phage were washed off, and then the specific phage were eluted with DTT. The eluted output was used to infect TG1 F+bacteria, rescued with helper phage, and then Fab display induced with IPTG (0.25 mM). This process was repeated for two additional rounds and then round three was screened in ELISA against passively immobilized recombinant Notch2 (EGF1-12) Fc fusion (5 μg/ml).

The target in test [2] is T2, human Notch1 with residues 382-386 mutated to the corresponding human Notch2 residues (385-389), full length, … (human, UniProt P46531 19-2555).
T2 construct: G384 is the same in both; also called mutant hNotch1; mutated Notch1
The test can be described thus: FACS on transiently transfected HEK 293 cells. How it is done:
FIG. 15. In vitro characterization of 59R5. […] PC3 tumor cells were transiently transfected with human or mouse Notch receptor (hN2, human Notch2; mN2, murine Notch2; hN3, human Notch3; mN3, murine Notch3) and GFP inducible reporter construct. Transfected cells were incubated with different concentrations of antibody 59R1 and 59R5 in the presence of passively immobilized DLL4 Fc. […] Cells were also co-transfected with a plasmid encoding green fluorescent protein (GFP) to mark those cells that received transfected plasmid. Cells were incubated with 59R1 or 59R5 and fluorescent secondary antibody and then examined by FACS.
The binding epitope of 59R5 was determined. As was described in Example 3 for analysis of antibody 59R1, several point mutants were created within full-length Notch1, converting residues within EGF10 to the corresponding amino acids in human Notch 2. Mutants in full-length Notch sequences were generated by QuikChange® mutagenesis (Stratagene) and verified by sequencing. […] Cells were also co-transfected with a plasmid encoding green fluorescent protein (GFP) to mark those cells that received transfected plasmid. Cells were incubated with 59R1 or 59R5 and fluorescent secondary antibody and then examined by FACS. 59R1 and 59R5 were detected by PE-conjugated goat anti-human Fc gamma specific antibody (Jackson Immunochemicals, #109-1,6-170).

The record followed here is patent publication US20100111958A1 (published 2010).

T2 sequence (P46531 other isoform, or with tags, fused parts or gaps limits assumed, change not shown): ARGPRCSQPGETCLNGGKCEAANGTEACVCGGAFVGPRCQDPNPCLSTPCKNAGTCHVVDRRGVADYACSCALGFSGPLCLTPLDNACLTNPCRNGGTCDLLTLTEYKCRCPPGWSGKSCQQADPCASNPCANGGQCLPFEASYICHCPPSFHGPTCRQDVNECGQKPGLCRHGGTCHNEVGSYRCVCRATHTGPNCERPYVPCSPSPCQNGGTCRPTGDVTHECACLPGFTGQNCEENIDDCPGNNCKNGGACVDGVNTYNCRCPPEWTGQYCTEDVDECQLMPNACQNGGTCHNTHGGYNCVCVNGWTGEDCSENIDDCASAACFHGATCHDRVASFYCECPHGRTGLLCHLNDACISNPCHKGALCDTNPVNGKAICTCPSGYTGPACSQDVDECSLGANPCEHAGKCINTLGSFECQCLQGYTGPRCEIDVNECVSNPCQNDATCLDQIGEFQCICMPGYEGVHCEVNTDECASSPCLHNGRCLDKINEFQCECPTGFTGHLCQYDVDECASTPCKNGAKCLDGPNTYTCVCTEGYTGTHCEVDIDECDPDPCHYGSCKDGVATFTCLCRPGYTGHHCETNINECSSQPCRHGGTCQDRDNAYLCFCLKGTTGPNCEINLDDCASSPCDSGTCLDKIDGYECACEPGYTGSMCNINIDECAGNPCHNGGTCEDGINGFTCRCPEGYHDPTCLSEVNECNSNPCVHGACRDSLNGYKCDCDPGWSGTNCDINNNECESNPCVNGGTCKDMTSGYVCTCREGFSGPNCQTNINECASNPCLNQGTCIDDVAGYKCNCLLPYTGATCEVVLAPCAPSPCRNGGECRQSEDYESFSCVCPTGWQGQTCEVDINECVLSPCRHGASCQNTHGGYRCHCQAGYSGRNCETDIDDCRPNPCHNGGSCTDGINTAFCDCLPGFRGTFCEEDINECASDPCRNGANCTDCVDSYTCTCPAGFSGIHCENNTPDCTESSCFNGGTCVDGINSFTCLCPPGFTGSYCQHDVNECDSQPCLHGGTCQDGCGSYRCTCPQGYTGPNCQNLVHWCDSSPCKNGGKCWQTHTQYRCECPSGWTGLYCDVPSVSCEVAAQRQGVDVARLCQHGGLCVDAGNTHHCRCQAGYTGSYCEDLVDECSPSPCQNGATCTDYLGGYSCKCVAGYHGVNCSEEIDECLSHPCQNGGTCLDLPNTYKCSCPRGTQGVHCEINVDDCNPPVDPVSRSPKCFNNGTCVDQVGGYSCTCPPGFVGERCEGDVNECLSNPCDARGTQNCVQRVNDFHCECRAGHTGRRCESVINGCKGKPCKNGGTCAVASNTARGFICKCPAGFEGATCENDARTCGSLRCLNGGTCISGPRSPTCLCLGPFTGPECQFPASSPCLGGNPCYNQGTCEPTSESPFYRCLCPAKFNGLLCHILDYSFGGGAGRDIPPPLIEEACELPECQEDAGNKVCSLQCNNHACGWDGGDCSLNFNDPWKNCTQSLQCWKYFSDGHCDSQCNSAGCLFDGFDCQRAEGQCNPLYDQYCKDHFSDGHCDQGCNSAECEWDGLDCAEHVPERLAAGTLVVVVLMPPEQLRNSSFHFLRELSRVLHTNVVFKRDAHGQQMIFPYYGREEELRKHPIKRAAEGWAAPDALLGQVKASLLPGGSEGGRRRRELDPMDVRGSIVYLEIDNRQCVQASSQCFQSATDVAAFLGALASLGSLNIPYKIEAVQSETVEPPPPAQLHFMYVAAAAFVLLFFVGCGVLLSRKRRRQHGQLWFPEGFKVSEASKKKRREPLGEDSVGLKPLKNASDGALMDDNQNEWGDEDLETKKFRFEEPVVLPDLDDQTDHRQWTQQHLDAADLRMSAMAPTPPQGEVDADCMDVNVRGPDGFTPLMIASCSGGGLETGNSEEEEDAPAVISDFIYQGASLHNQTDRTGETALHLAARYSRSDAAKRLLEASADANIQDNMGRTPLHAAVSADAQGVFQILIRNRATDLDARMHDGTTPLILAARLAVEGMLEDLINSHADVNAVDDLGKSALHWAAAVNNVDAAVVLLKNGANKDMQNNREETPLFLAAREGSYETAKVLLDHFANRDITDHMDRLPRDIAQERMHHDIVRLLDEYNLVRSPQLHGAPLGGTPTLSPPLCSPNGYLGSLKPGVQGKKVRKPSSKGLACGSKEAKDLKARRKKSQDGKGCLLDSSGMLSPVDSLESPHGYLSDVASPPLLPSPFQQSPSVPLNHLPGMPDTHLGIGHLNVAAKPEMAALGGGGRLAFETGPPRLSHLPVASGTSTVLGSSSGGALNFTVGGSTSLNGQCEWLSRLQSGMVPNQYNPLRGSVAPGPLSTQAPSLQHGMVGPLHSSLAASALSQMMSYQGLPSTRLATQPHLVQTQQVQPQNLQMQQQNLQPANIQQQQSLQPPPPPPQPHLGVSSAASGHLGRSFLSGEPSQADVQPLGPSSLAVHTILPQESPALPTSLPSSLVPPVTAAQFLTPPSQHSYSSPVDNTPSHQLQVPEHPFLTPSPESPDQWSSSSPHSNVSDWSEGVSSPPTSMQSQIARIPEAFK
T1 sequence (chain, as listed by the source limits assumed): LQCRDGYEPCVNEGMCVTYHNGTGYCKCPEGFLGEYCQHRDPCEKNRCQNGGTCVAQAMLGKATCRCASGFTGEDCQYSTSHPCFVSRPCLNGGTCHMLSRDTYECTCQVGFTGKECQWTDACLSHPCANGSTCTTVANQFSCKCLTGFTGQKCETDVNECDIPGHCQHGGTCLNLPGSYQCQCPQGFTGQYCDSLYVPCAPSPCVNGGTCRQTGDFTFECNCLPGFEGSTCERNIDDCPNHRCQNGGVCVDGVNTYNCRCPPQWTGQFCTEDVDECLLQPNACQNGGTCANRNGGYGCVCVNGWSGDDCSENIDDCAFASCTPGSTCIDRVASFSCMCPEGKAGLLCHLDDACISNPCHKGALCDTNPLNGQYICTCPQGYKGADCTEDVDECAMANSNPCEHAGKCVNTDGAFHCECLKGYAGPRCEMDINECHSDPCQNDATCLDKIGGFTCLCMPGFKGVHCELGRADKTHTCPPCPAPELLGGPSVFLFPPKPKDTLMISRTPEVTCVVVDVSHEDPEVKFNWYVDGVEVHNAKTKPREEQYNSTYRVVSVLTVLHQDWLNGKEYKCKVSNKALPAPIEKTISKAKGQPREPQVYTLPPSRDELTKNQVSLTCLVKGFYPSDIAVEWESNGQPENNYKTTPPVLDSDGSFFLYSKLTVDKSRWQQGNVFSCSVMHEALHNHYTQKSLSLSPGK

B1: 59R1 Fab (Fab, V domains shown)
VH: QVQLVESGGGLVQPGGSLRLSCAASGFTFSSSGMSWVRQAPGKGLEWVSVIASSGSNTYYADSVKGRFTISRDNSKNTLYLQMNSLRAEDTAVYYCARGIFFAIWGQGTLVTVSS
VL: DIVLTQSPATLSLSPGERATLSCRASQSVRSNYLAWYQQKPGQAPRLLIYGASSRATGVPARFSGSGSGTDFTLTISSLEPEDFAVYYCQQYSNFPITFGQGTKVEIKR
notes: Human Fab from a synthetic phage library; also called Clone 1; clone 1
Regarding B1, the binding result in test [1] is reported as “binds”.

B2: 59R5 antibody (antibody, human IgG2, kappa, V domains shown)
VH: EVQLVESGGGLVQPGGSLRLSCAASGFTFSSSGMSWVRQAPGKGLEWVSVIASSGSNTYYADSVKGRFTISRDNSKNTLYLQMNSLRAEDTAVYYCARSIFYTTWGQGTLVTVSS
VL: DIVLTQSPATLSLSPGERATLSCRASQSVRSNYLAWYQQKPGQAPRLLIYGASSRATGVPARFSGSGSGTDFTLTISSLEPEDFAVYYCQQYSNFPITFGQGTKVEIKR
notes: also called anti-Notch2/3 antibody 59R5; 59R5 IgG2
As for B2, the binding result in test [2] is “binds”.
